Data as given in publication PMC3697942.

Target: T1, HB5 (HOMEOBOX PROTEIN 5, class I HD-ZIP) (Arabidopsis thaliana, UniProt P46667 1-312)
T1 sequence: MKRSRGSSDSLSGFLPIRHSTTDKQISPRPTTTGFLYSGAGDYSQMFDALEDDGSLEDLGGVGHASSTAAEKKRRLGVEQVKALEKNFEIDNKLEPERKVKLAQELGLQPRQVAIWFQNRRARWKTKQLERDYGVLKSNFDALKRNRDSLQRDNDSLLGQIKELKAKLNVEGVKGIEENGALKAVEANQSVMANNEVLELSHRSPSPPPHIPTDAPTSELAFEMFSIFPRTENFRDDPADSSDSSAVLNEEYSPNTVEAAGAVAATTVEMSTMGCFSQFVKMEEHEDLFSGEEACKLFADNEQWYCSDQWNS
Assay: EMSA

B1: PF 36bp (dsDNA)
DNA 1: GGCCCGCCATTACAAGACATATGGGTCCCAATTCTCATCACGGGCC
DNA 2: GGCCCGTGATGAGAATTGGGACCCATATGTCTTGTAATGGCGGGCC
- binding result: binds
